From patent US20210085781A1

Target: recombinant SARS-CoV-2 S1 protein expressed from insect (Sf9) cells (S1-His, SinoBiological, Cat. No. 40591-V08B1) (SARS-CoV-2) (UniProt P0DTC2)
Test: ELISA, coated S1 from Sf9 cells, HRP-conjugated lectin 10 ug/mL

Salvia sclarea lectin (SSA; Cat. No: H-3501-1)
mean fold increase of OD450: 3.97 fold
